Assay results taken from patent US20230028110A1 (ADAPTATE BIOTHERAPEUTICS, published 2023).
Substitutions are numbered along the chain they refer to. Like-named read-outs stand apart in the source and are kept apart here.

Columns and labels:
[1] = target: Vδ1 chain of the γδ TCR on human Vδ1 γδ T cells (human); assay: cell-based or functional assay
[2] = target: T1, L1 (DV1-GV4), soluble human Vδ1/Vγ4 γδ TCR heterodimer in leucine zipper format (human); assay: DELFIA, 100 nM biotinylated L1
T1 construct: Biotinylated in the DELFIA ranking; also called Antigen L1 (TRDV1/TRGV4); human DV1-GV4; not shown: gamma chain: Vγ4 (TRGV4) domain on a TCR constant region, leucine zipper, histidine tag
T1 sequence (main, as listed by the source): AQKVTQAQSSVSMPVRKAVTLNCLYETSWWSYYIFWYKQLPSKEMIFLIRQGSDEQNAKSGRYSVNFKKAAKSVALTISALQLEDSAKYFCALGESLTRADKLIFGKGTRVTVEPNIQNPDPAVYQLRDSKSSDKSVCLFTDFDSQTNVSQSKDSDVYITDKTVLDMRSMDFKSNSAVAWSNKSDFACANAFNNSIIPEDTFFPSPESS

[3] = target: Vδ1 chain of the γδ TCR on human Vδ1 γδ T cells (human); assay: cell-based or functional assay; remark: listed apart in the source
[4] = target: Vδ1 chain of the γδ TCR on human Vδ1 γδ T cells (human); assay: cell-based or functional assay; remark: listed apart in the source
[5] = target: T1, L1 (DV1-GV4), soluble human Vδ1/Vγ4 γδ …; assay: DELFIA ELISA, human antigen; heat map cell of the clone
[6] = target: T1, L1 (DV1-GV4), soluble human Vδ1/Vγ4 γδ …; assay: SPR (Reichert 4SPR), antibody on Protein A chip, human Vδ1 antigen as analyte; average of two replicates on two instruments
From the text: The binding affinity of the antibodies to target (i.e. the Vδ1 chain of a γδ TCR) is established by SPR analysis using a Reichert 4SPR instrument (Reichert Technologies).
The binding interaction of Vδ1 and the affinity-matured mAbs were modelled according to Langmuir 1:1 binding.

[7] = target: T2, Vδ1 chain of the γδ TCR on human Vδ1 γδ T cells (human); assay: flow cytometry binding to Vδ1 γδ T cells, donor TS164; column head printed 'IC50', unit nM from the chart axis and FIG. 34D
T2 construct: whole, on cells; also called cell surface Vδ1 TCR; Vδ1-positive γδ T cells
T2 sequence (A0A1B0GX56 22-115, stated change not applied): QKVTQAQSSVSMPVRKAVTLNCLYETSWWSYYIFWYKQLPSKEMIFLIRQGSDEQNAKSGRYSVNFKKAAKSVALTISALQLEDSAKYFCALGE
Method: (§1) All incubation steps were performed at 4° C. and mAb binding was determined using flow cytometry to measure the median level of fluorescence. Logarithmic four parameter dose-response curves were fitted using GraphPad Prism 9. […] For Vδ1-positive γδ T cell, data is represented as the mean two donors.
(§2) A range of target cells were assayed to determine the specificity and affinity of Vδ1 mAb binding. This included expanded skin-derived Vδ1 γδ T-cells, HEK293T cells, Raji cells, and multiple leukocyte subsets within human primary blood mononuclear cells. Adherent or semi-adherent cells (skin-derived Vδ1 γδ T-cells, HEK293T) were detached from tissue culture flask and resuspended in PBS. Similarly, non-adherent cell types (Raji, PBMC), were harvested and resuspended in PBS. Cells were seeded at a final density of 100,000 cells per well in v-bottom 96-well plates. Cells underwent centrifugation and the cell pellets were resuspended in FcR blocking reagent according to the manufacturer's instructions, and incubated for 20 minutes at 4C prior to a further wash. […] To determine the quantity of mAb bound to the cell surface, the cells were then stained with a murine anti-human IgG secondary antibody, conjugated to APC (dilution: 1:100). For Vδ1 γδ T-cells, HEK293T and Raji, the cells were also stained solely with a viability dye.

[8] = target: T2, Vδ1 chain of the γδ TCR on human Vδ1 γδ …; assay: flow cytometry binding to Vδ1 γδ T cells, donor ATS006; column head printed 'IC50', unit nM from the chart axis and FIG. 34D
Method: as §1, §2

[9] = target: T2, Vδ1 chain of the γδ TCR on human Vδ1 γδ …; assay: flow cytometry, Vδ1 γδ T cells of donor TS164, mAb titrated up to about 500 nM at 4 C, anti-human IgG detection
Method: as §1, §2

[10] = target: T2, Vδ1 chain of the γδ TCR on human Vδ1 γδ …; assay: flow cytometry, Vδ1 γδ T cells of donor ATS006, mAb titrated up to about 500 nM at 4 C, anti-human IgG detection
Method: as §1, §2

B1: 1251_P02_G10 (antibody, IgG1, V domains shown)
VH: EVQLVESGGGLVQPGGSLRLSCAASGFTFSDYYMSWIRQAPGKGLEWVSYISSSGSTIYYADSVKGRFTISRDNAKNSLYLQMNSLRAEDTAVYYCARHSWNDAFDIWGRGTLVTVSS
VL: DIQMTQSPSSLSASVGDRVTITCRASQSISSHLNWYQQKPGKAPKLLIYAASSLQSGVPSRFSASGSGTDFTLTISSLQPEDFATYYCQQSYSTLLTFGGGTKVEIK
notes: IgG1
TCR downregulation (EC50 µg/ml-3 donors) [1]: 0.849 µg/mL
DELFIA signal at 100 nM L1 [2]: 17100 fluorescence units

B2: ADT1-4-86 (antibody, IgG1, V domains shown)
VH: EVQLQQSGPGLVKPSQTLSLTCAISGDSVSSKSVAWNWIRQSPSRGLEWLGRTYYRSKWSTDYAASVKSRITINPDTSKNQLSLQLNSVTPEDTAVYYCARTWLGNVDVWGQGTLVTVSS
VL: DIQMTQSPPALSASVGDRVTITCRASQDINDWLAWYQHKPGKAPKLLIYDASSLESGVPLRFSGSGSGTEFTLTISSLQPDDFATYYCQQKYSEPQVTFGQGTRLEIK
IC90 TCR DR (noTHP-1) [3]: 1 nM

B3: 1245_P01_B07 (antibody, IgG1, V domains shown)
VH: B1 VH with V5L, Q13K, H99E, S100N, W101Y, N102L, D103N
VL: B1 VL with A25T, I29L, S31N, H32Y, A64G, L95P, V104L
notes: IgG1
TCR downregulation (EC50 µg/ml), 1 donor only [1]: 0.35 µg/mL
DELFIA signal at 100 nM L1 [2]: 64300 fluorescence units

B4: 1245_P01_E07 (antibody, IgG1, V domains shown)
VH: B1 VH with E1Q, Q13K, H99V, S100D, W101Y, N102A, R110Q
VL: B1 VL with T22A, S26G, S30G, S31T, H32Y, A50V, A64G, D70E, G100R
notes: also called ADT1-7; parental ADT1-7
IC50 TCR DR (no THP-1) [4]: 22.4 nM
IC90 TCR DR (noTHP-1) [4]: 139 nM
DELFIA signal at 100 nM L1 [2]: 163000 fluorescence units
ELISA signal (heat map) [5]: 5470
Kd [6]: 38.1 nM
EC50 [7]: 226 nM
EC50 [8]: > 100 nM

B5: ADT1-7-20 (antibody, IgG1, V domains shown)
VH: B1 VH with Q13K, H99V, S100D, W101Y, N102Q, D103E, R110Q
VL: DIQMTQSPSSLSASVGDRVTIACRAGQSIGTYLNWYQQKPGKAPKLLIYVASSLQSGVPSRFSGSGSGTEFTLTISSLQPEDFATYYCQQSYSGLDTFGRGTKVEIK
notes: IgG1
IC50 TCR DR (no THP-1) [4]: 0.164 nM
IC90 TCR DR (noTHP-1) [4]: 1.04 nM
ELISA signal (heat map) [5]: 30800
Kd [6]: 4.99 nM
EC50 [7]: 2.68 nM
EC50 [8]: 37.2 nM

B6: ADT1-7-3 (antibody, IgG1, V domains shown)
VH: B1 VH with Q13K, H99V, W101Y, N102A, D103E, R110Q
VL: B5 VL
notes: IgG1
IC50 TCR DR (no THP-1) [4]: 0.161 nM
IC90 TCR DR (noTHP-1) [4]: 0.79 nM
ELISA signal (heat map) [5]: 37100
EC50 (read off the curve) [9]: ~1 nM
EC50 (read off the curve) [10]: ~5 nM
Kd [6]: 3.78 nM
EC50 [7]: 0.952 nM
EC50 [8]: 5.15 nM

B7: ADT1-7-22 (antibody, IgG1, V domains shown)
VH: B1 VH with Q13K, H99D, S100D, W101Y, R110Q
VL: B5 VL with Y92A, G94E, D96L
notes: IgG1
ELISA signal (heat map) [5]: 27800

B8: ADT1-7-15 (antibody, IgG1, V domains shown)
VH: B1 VH with Q13K, H99D, S100D, W101Y, R110Q
VL: B5 VL with Y92A, S93D, G94T, D96L
notes: IgG1
ELISA signal (heat map) [5]: 30400

B9: ADT1-7-10 (antibody, IgG1, V domains shown)
VH: B1 VH with Q13K, H99D, S100D, W101Y, R110Q
VL: B5 VL with S91T, Y92A, G94T, D96L
notes: IgG1
ELISA signal (heat map) [5]: 30900

B10: ADT1-7-17 (antibody, IgG1, V domains shown)
VH: B1 VH with Q13K, H99I, S100D, W101Y, N102E, R110Q
VL: B5 VL with Y92G, G94E, D96L
notes: IgG1
ELISA signal (heat map) [5]: 30200

B11: ADT1-7-19 (antibody, IgG1, V domains shown)
VH: B1 VH with Q13K, H99I, S100D, W101Y, N102E, R110Q
VL: B5 VL with Y92A, G94E, D96L
notes: IgG1
ELISA signal (heat map) [5]: 34700

B12: ADT1-7-23 (antibody, IgG1, V domains shown)
VH: B1 VH with Q13K, H99V, S100D, W101Y, D103E, R110Q
VL: B5 VL
notes: IgG1
ELISA signal (heat map) [5]: 34400

B13: ADT1-7-18 (antibody, IgG1, V domains shown)
VH: B1 VH with Q13K, H99V, W101Y, N102D, R110Q
VL: B5 VL with A25V, Y92A, G94E, D96L
notes: IgG1
ELISA signal (heat map) [5]: 34800

B14: ADT1-7-42 (antibody, IgG1, V domains shown)
VH: B1 VH with Q13K, H99D, S100D, W101Y, N102E, R110Q
VL: B5 VL with Y92S, G94E, D96L
notes: IgG1
ELISA signal (heat map) [5]: 37600

B15: 1138_P01_B09 (antibody, IgG1, V domains shown)
VH: B1 VH with V5L, Q13K, N102S, R110Q
VL: B1 VL with R24Q, S28D, S31N, H32Y, A50D, S53N, Q55E, S56T, A64G, L95P
notes: IgG1
DELFIA signal at 100 nM L1 [2]: 29200 fluorescence units

B16: 1141_P01_E01 (antibody, IgG1, V domains shown)
VH: QVQLVQSGAEVKKPGESLKISCKGSGYSFTSYWIGWVRQMPGKGLEWMGIIYPGDSDTRYSPSFQGQVTISADKSISTAYLQWSSLKASDTAMYYCARHQVDTRTADYWGQGTLVTVSS
VL: SQSALTQPASVSGSPGQSVTISCTGTRSDVGGYNYVSWYQHHPGKAPKLMIYEVSNRPSGVSNRFSGSKSGNTASLTISGLQAEDEADYYCSSYTSTSTLVFGGGTKLTVL
notes: IgG1, lambda light chain
DELFIA signal at 100 nM L1 [2]: 137000 fluorescence units

B17: 1252_P01_C08 (antibody, IgG1, V domains shown)
VH: EVQLLESGGGLVQPGRSLRLSCAASGFTVSSNYMSWVRQAPGKGLEWVSVIYSGGSTYYADSVKGRFTISRDNSKNTLYLQMNSLRAEDTAVYYCASPIELGAFDIWGQGTLVTVSS
VL: SSYELTQPPSVSVAPGKTARITCGGNNIGSQSVHWYQQKPGQAPMLVIYYDSDRPSGIPERFSGSNSGNTATLTISRVEAGDEADYYCQVWDSSSDHVVFGGGTKLTVL
notes: IgG1, lambda light chain
DELFIA signal at 100 nM L1 [2]: 1980 fluorescence units

B18: 1251_P02_C05 (antibody, IgG1, V domains shown)
VH: EVQLLESGGGLVQPGGSLRLSCAASGFTFSSYAMSWVRQAPGKGLEWVSAISGGGGTTYSSDSVKGRFTISRDNSKNTLYLQMNSLRAEDTAVYYCARDSGVAFDIWGQGTLVTVSS
VL: DIQMTQSPSFLSASVGDRVTITCRASQNIRTWLAWYQQKPGRAPKLLIYDASSLESGVPSRFSGSGSGTDFTLTISSLQPEDFATYYCQQFKRYPPTFGLGTKVEIK
notes: IgG1
DELFIA signal at 100 nM L1 [2]: 65300 fluorescence units

B19: 1139_P01_E04 (antibody, IgG1, V domains shown)
VH: QVQLQQSGPGLVKPSQTLSLTCAISGDSVSSNSAAWNWIRQSPSRGLEWLGRTYYRSKWYNDYAVSVRSRITINPDTSKNQFSLQLNSVTPEDTAVYYCARSWNDAFDIWGQGTTVTVSS
VL: DIVMTQSPSTLSASIGDRVTITCRAGQSISTWLAWYQQKPGKAPKLLIYDASSLESGVPLRFSGSGSGTDFTLTISSLQPEDFATYYCQQSYSTPLTFGGGTKVEIK
notes: IgG1
DELFIA signal at 100 nM L1 [2]: 23800 fluorescence units

B20: 1245_P02_F07 (antibody, IgG1, V domains shown)
VH: B19 VH with A23V, R68K, S102D, W103Y, N104Y, D105Y, A106S, F107M, I109V, T115M
VL: DIQMTQSPSTLSASVGDRVTITCRASQSISSWLAWYQQKPGKAPKLLIYDASSLESGVPLRFSGSGSGTEFTLTISSLQPDDFATYYCQQSHSHPPTFGPGTKVDIK
notes: IgG1
DELFIA signal at 100 nM L1 [2]: 10400 fluorescence units

B21: 1245_P01_G06 (antibody, V domains shown)
VH: B1 VH with E1Q, Q13K, I107V, R110Q
VL: not shown
notes: IgG1
DELFIA signal at 100 nM L1 [2]: 22500 fluorescence units

B22: 1245_P01_G09 (antibody, IgG1, V domains shown)
VH: QVQLQQSGPGLVKPSQTLSLTCAISGDSVSSNSAAWNWIRQSPSRGLEWLGRTYYGSKWYNEYALSVKSRIIINPDTSKNQFSLQLNSVTPEDTAVYYCARDYYYSMDVWGQGTLVTVSS
VL: B19 VL with D70E, T74A, E81D, L96V, G100Q
notes: IgG1
DELFIA signal at 100 nM L1 [2]: 18400 fluorescence units
